Experimental data reported in article PMC10673995, “Discovery of a novel cardiac-specific myosin modulator using artificial intelligence-based virtual screening” (Nature Communications, 2023).

Target: Rabbit skeletal F-actin (rabbit), P68135

B1: bovine β-cardiac myosin S1, Q9BE39 1-1935; P85100 1-199 (domain or fragment)
heavy: MVDAEMAAFGEAAPYLRKSEKERLEAQTRPFDLKKDVFVPDDKEEFVKATILSREGGKVTAETEHGKTVTVKEDQVLQQNPPKFDKIEDMAMLTFLHEPAVLYNLKERYASWMIYTYSGLFCVTINPYKWLPVYNAEVVAAYRGKKRSEAPPHIFSISDNAYQYMLTDRENQSILITGESGAGKTVNTKRVIQYFAVIAAIGDRSKKEQATGKGTLEDQIIQANPALEAFGNAKTVRNDNSSRFGKFIRIHFGATGKLASADIETYLLEKSRVIFQLKAERDYHIFYQILSNKKPELLDMLLITNNPYDYAFISQGETTVASIDDAEELMATDNAFDVLGFTTEEKNSMYKLTGAIMHFGNMKFKLKQREEQAEPDGTEEADKSAYLMGLNSADLLKGLCHPRVKVGNEYVTKGQNVQQVVYAKGALAKAVYERMFNWMVTRINATLETKQPRQYFIGVLDIAGFEIFDFNSFEQLCINFTNEKLQQFFNHHMFVLEQEEYKKEGIEWEFIDFGMDLQACIDLIEKPMGIMSILEEECMFPKATDMTFKAKLFDNHLGKSSNFQKPRNIKGKPEAHFSLIHYAGTVDYNIIGWLQKNKDPLNETVVDLYKKSSLKMLSSLFANYAGFDTPIEKGKGKAKKGSSFQTVSALHRENLNKLMTNLRSTHPHFVRCIIPNETKSPGVIDNPLVMHQLRCNGVLEGIRICRKGFPNRILYGDFRQRYRILNPAAIPEGQFIDSRKGAEKLLGSLDIDHNQYKFGHTKVFFKAGLLGLLEEMRDERLSRIITRIQAQSRGVLSRMEFKKLLERRDSLLIIQWNIRAFMGVKNWPWMKLYFKIKPLLKSAETEKEIALMKEEFGRLKEALEKSEARRKELEEKMVSLLQEKNDLQLQVQAEQDNLADAEERCDQLIKNKIQLEAKVKEMTERLEDEEEMNAELTAKKRKLEDECSELKRDIDDLELTLAKVEKEKHATENKVKNLTEEMAGLDEIIAKLTKEKKALQEAHQQALDDLQAEEDKVNTLTKAKVKLEQHVDDLEGSLEQEKKVRMDLERAKRKLEGDLKLTQESIMDLENDKQQLDERLKKKDFELNALNARIEDEQALGSQLQKKLKELQARIEELEEELEAERTARAKVEKLRSDLSRELEEISERLEEAGGATSVQIEMNKKREAEFQKMRRDLEEATLQHEATAAALRKKHADSVAELSEQIDNLQRVKQKLEKEKSEFKLELDDVTSNMEQIIKAKANLEKMCRTLEDQMNEHRSKAEETQRSVNDLTSQRAKLQTENGELSRQLDEKEALISQLTRGKLTYTQQLEDLKRQLEEEVKAKNALAHALQSARHDCDLLREQYEEETEAKAELQRVLSKANSEVAQWRTKYETDAIQRTEELEEAKKKLAQRLQDAEEAVEAVNAKCSSLEKTKHRLQNEIEDLMVDVERSNAAAAALDKKQRNFDKILAEWKQKYEESQSELESSQKEARSLSTELFKLKNAYEESLEHLETFKRENKNLQEEISDLTEQLGSSGKTIHELEKVRKQLEAEKLELQSALEEAEASLEQEEGKILRAQLEFNQIKAEMERKLAEKDEEMEQAKRNHLRVVDSLQTSLDAETRSRNEALRVKKKMEGDLNEMEIQLSHANRLAAEAQKQVKSLQSLLKDTQIQLDDAVRANDDLKENIAIVERRNNLLQAELEELRAVVEQTERSRKLAEQELIETSERVQLLHSQNTSLINQKKKMEADLSQLQTEVEEAVQECRNAEEKAKKAITDAAMMAEELKKEQDTSAHLERMKKNMEQTIKDLQHRLDEAEQIALKGGKKQLQKLEARVRELENELEAEQKRNAESVKGMRKSERRIKELTYQTEEDRKNLLRLQDLVDKLQLKVKAYKRQAEEAEEQANTNLSKFRKVQHELDEAEERADIAESQVNKLRAKSRDIGTKGLNEE
light: not shown
  F-actin concentration dependence of the steady-state ATPase activity of bovine β-cardiac myosin S1 (NADH-coupled assay), Kapp in the absence and in the presence of 100 μmol/L F10: 20 µmol/L
